Results on 3 substances are retold here after publication PMC10713589.

Assay [1] has as its target Full-length VEX1 tagged with 12xmyc at the C-terminus at the native locus (Trypanosoma brucei). As to the kind of experiment: SEC; trypanosome extracts (1% CHAPS in PBS, micrococcal nuclease treated) on a BioBasic SEC 1000 column at 5 °C, elution in 0.3% CHAPS in PBS; fractions analysed by anti-myc protein blot; calibrated with thyroglobulin, ferritin, BSA and myoglobin. In general terms: In gel filtration, larger molecules generally elute earlier.

Assay [2] has as its target VSG exclusion factor 1 (VEX1), full length, with a C-terminal 12xmyc tag at the native locus (T. brucei). As to the kind of experiment: native gel or EMSA; blue native PAGE (3-12% gradient, 4 °C) of digitonin lysates treated with micrococcal nuclease, blotted for the myc-tagged protein; with and without knockdown of VEX1, VEX2 or CAF-1. In general terms: In EMSA bound probe runs differently from free probe, usually more slowly.

The target of assay [3] is VSG exclusion factor 2 (VEX2) with an N-terminal 6x c-myc tag, tagged at the native locus (T. brucei). The description is as above.

Values joined by “and” are separate entries in the source; they are usually repeats but may differ in a detail not shown here. Equal values may be shown once.

For the substance “Full-length VEX1 tagged with 12xmyc at the C-terminus at the native locus (natural protein)”, in assay [1], the stoichiometry N (commonly a count of units in the complex or per binding partner) amounted to 2.

In the case of “VSG exclusion factor 1 (VEX1), full length, with a C-terminal 12xmyc tag at the native locus (natural protein)”, in assay [2], the stoichiometry N is 2.

As to “VSG exclusion factor 2 (VEX2) with an N-terminal 6x c-myc tag, tagged at the native locus (natural protein)”, the stoichiometry N in assay [3] is 2 and 6.
